Results reported in US20190322748A1.

Columns and labels:
[1] = target: Tim3-ECD-His-Biotin (human) (UniProt Q8TDQ0); experiment: ELISA on human Tim3 (values in relation to the samples max value)
[2] = target: monomeric cyno Tim3-ECD (cynomolgus); experiment: ELISA on cynomolgus Tim3 (values in relation to the samples max value)
[3] = target: monomeric human Tim3-ECD (human) (UniProt Q8TDQ0); experiment: SPR BIAcore B4000, Ab captured on anti-mouse IgG, 25 C
[4] = target: monomeric cyno Tim3-ECD (cynomolgus); experiment: as above
[5] = target: huFc fused dimeric human Tim3-ECD (human) (UniProt Q8TDQ0); experiment: SPR BIAcore B4000, Ab captured on anti-mouse IgG, 25 C, dimeric antigen (avidity)
[6] = target: monomeric cyno Tim3-ECD (cynomolgus); experiment: ELISA on cynomolgus Tim3
[7] = target: full-length human Tim3 on cells (CHO-K1 stably transfected with plasmid 15312_hTIM3-fl_pUC_Neo) (human) (UniProt Q8TDQ0); experiment: cellular ELISA on CHO-TIM3
[8] = target: full-length human Tim3 on cells (CHO-K1 stably transfected with plasmid 15312_hTIM3-fl_pUC_Neo) (human) (UniProt Q8TDQ0); experiment: cellular ELISA on CHO-TIM3 (values in relation to the samples max value)
[9] = target: Tim3-ECD-His-Biotin (human) (UniProt Q8TDQ0); experiment: ELISA on human Tim3
[10] = target: full-length human Tim3 on cells (CHO-K1 stably transfected with plasmid 15312_hTIM3-fl_pUC_Neo) (human) (UniProt Q8TDQ0); experiment: cell-based or functional assay

EC50 [1]: 0.0732 µg/mL | EC50 [2]: 0.423 µg/mL | Kd [3]: 13.6 nM | Kd [4]: 168 nM | Kd [5]: 7.5 nM | Inflexion point [6]: 210000 ng/mL | Inflexion point [7]: 224 ng/mL | EC50 [8]: 0.15 µg/mL | Inflexion point [9]: 88.3 ng/mL | IFN-gamma release in MLR at 1 µg/ml antibody, % of rec hu IL-2 (20 EU/ml) = 100% [10]: 7% | IFN-gamma release in MLR at 10 µg/ml antibody, % of rec hu IL-2 (20 EU/ml) = 100% [10]: 26% | IFN-gamma release in MLR at 40 µg/ml antibody, % of rec hu IL-2 (20 EU/ml) = 100% [10]: 36%
Substance: Reference antibody Biolegend F38-2E2
